According to patent CN111748032A (JIANGSU PROVINCIAL CENTER FOR DISEASE CONTROL AND …, dated 2020):
Changes are numbered by the printed parent chain.

B1: JS01 (antibody, V domains shown)
VH: QVQLVESGAEVKKPGSSVKVSCKASGGTFSSYAISWVRQAPGQGLEWMGGIIPIFGTANYAQKFQGRVTITADESTSTAYMELSSLRSEDTAVYYCARGGWRSSGYHDYSYYGMDVWGQGTTVTVSS
VL: not shown
B2: JS13 (antibody, V domains shown)
VH: QVQLVQSGAEVKKPGSSVKVSCKASGGTFSSYAISWVRQAPGQGLEWMGGIIPIFGTANYAQKFQGRVTITADESTSTAYMELSSLRSEDTAVYYCARGGWVICSSTSCYTKYSYYGMDVWGQGTTVTVSS
VL: QSVLTQPPSVSAAPGQKVTISCSGSSSNIGNNYVSWYQQLPGTAPKLLIYDNNKRPSGIPDRFSGSKSGTSATLGITGLQTGDEADYYCGTWDSSLIARLFGGGTKLTVL
B3: JS14 (antibody, V domains shown)
VH: EVQLLESGGGVVQPGRSLRLSCAASGFTFSSYGMHWVRQAPGKGLEWVAVIWYDGSNKYYADSVKGRFTISRDNSKNTLYLQMNSLRAEDTAVYYCARDGSGSYYWGSLDYWGQGTLVTVSS
VL: not shown
B4: JS05 (antibody, V domains shown)
VH: EVQLLESGGGVVQPGRSLRLSCAASGFIFSSYGMHWVRQAPGKGLEWVAVIWYDGSNKYYADSVKGRFTISRDNSKNTLYLQMNSLRAEDTAVYYCARDLRGPTGWTFDYWGQGTLVTVSS
VL: ENVLTQSPATLSLSPGERATLSCRASQSVSNYLAWYQQRPGQAPRLLIYDSSNRATGIPARFSGSGSGTDFTLTISSLEPEDFAVYYCQHRSNWKITFGQGTRLEIK
B5: JS12 (antibody, V domains shown)
VH: B3 VH
VL: B4 VL with N31S, R39K, D50G, S51A, H90Q, K95P, I96W, R103K, L104V

Molecular target: 重组SARS-CoV2核蛋白(NP) (SARS-CoV-2, UniProt P0DTC9 1-419)
Assay: double-antibody sandwich lateral flow strip, paired with JS08, recombinant NP

| Binder | 检测限 (detection limit) [ng/mL] |
| --- | --- |
| B1 | < 2 |
| B2 | < 2 |
| B3 | < 2 |
| B4 | < 2 |
| B5 | < 2 |
